Measured values as given in publication PMC6155126 (Nature Communications, 2018).

Biological target: FLAG-Pol λ-WT (human, UniProt Q9UGP5 1-575)
Test: cell-based or functional assay

B1: FLAG-XRCC4 (natural protein, human, UniProt Q13426 1-336, looked up)
chain: MERKISRIHLVSEPSITHFLQVSWEKTLESGFVITLTDGHSAWTGTVSESEISQEADDMAMEKGKYVGELRKALLSGAGPADVYTFNFSKESCYFFFEKNLKDVSFRLGSFNLEKVENPAEVIRELICYCLDTIAENQAKNEHLQKENERLLRDWNDVQGRFEKCVSAKEALETDLYKRFILVLNEKKTKIRSLHNKLLNAAQEREKDIKQEGETAICSEMTADRDPVYDESTDEESENQTDLSGLASAAVSKDDSIISSLDVTDIAPSRKRRQRMQRNLGTEPKMAPQENQLQEKENSRPDSSLPETSKKEHISAENMSLETLRNSSPEDLFDEI
**Q.** How did the “Pol λ-dependent gap filling synthesis on a 5nt-gapped dsDNA (33-mer), stimulation by added protein over a concentration series” value turn out when B1 was run?
**A.** ≤ 10 fold
